Source: US12679878B2, “CRF2 receptor agonists and their use in therapy” (SANOFI, priority 2020, dated 2026)
Starred links: 1 amine or outer side, 2 acyl side, 3 side chain; linkers in the order of their positions; H or OH if unused. Non-standard residues stand in square brackets, D forms with d. Groups on a side chain read outwards from the residue. *: point of attachment. C18 diacid = O=C(O)CCCCCCCCCCCCCCCCC(=O)*; γGlu = O=C(O)[C@H](CCC(=O)[*:2])N[*:1]; AEEA = NCCOCCOCC(=O)O; Aib = CC(C)(N)C(=O)O

B1: peptide of SEQ ID NO: 159 (peptide)
peptide: Ac-IVLSLD[dV]PIKLK([AEEA-AEEA-γGlu-C18 diacid])QILLEQERQE[Aib]QREQAEKNKQILEQV-NH2
SMILES: CC[C@H](C)[C@H](NC(C)=O)C(=O)N[C@H](C(=O)N[C@@H](CC(C)C)C(=O)N[C@@H](CO)C(=O)N[C@@H](CC(C)C)C(=O)N[C@@H](CC(=O)O)C(=O)N[C@@H](C(=O)N1CCC[C@H]1C(=O)N[C@H](C(=O)N[C@@H](CCCCN)C(=O)N[C@@H](CC(C)C)C(=O)N[C@@H](CCCCNC(=O)COCCOCCNC(=O)COCCOCCNC(=O)CC[C@H](NC(=O)CCCCCCCCCCCCCCCCC(=O)O)C(=O)O)C(=O)N[C@@H](CCC(N)=O)C(=O)N[C@H](C(=O)N[C@@H](CC(C)C)C(=O)N[C@@H](CC(C)C)C(=O)N[C@@H](CCC(=O)O)C(=O)N[C@@H](CCC(N)=O)C(=O)N[C@@H](CCC(=O)O)C(=O)N[C@@H](CCCNC(=N)N)C(=O)N[C@@H](CCC(N)=O)C(=O)N[C@@H](CCC(=O)O)C(=O)NC(C)(C)C(=O)N[C@@H](CCC(N)=O)C(=O)N[C@@H](CCCNC(=N)N)C(=O)N[C@@H](CCC(=O)O)C(=O)N[C@@H](CCC(N)=O)C(=O)N[C@@H](C)C(=O)N[C@@H](CCC(=O)O)C(=O)N[C@@H](CCCCN)C(=O)N[C@@H](CC(N)=O)C(=O)N[C@@H](CCCCN)C(=O)N[C@@H](CCC(N)=O)C(=O)N[C@H](C(=O)N[C@@H](CC(C)C)C(=O)N[C@@H](CCC(=O)O)C(=O)N[C@@H](CCC(N)=O)C(=O)N[C@H](C(N)=O)C(C)C)[C@@H](C)CC)[C@@H](C)CC)[C@@H](C)CC)C(C)C)C(C)C
B2: peptide of SEQ ID NO: 158 (peptide)
peptide: Ac-IVLSLD[dV]PIKLK([AEEA-AEEA-γGlu-C18 diacid])QILLEQERQK[Aib]QREQAEKNKQILEQV-NH2
SMILES: CC[C@H](C)[C@H](NC(C)=O)C(=O)N[C@H](C(=O)N[C@@H](CC(C)C)C(=O)N[C@@H](CO)C(=O)N[C@@H](CC(C)C)C(=O)N[C@@H](CC(=O)O)C(=O)N[C@@H](C(=O)N1CCC[C@H]1C(=O)N[C@H](C(=O)N[C@@H](CCCCN)C(=O)N[C@@H](CC(C)C)C(=O)N[C@@H](CCCCNC(=O)COCCOCCNC(=O)COCCOCCNC(=O)CC[C@H](NC(=O)CCCCCCCCCCCCCCCCC(=O)O)C(=O)O)C(=O)N[C@@H](CCC(N)=O)C(=O)N[C@H](C(=O)N[C@@H](CC(C)C)C(=O)N[C@@H](CC(C)C)C(=O)N[C@@H](CCC(=O)O)C(=O)N[C@@H](CCC(N)=O)C(=O)N[C@@H](CCC(=O)O)C(=O)N[C@@H](CCCNC(=N)N)C(=O)N[C@@H](CCC(N)=O)C(=O)N[C@@H](CCCCN)C(=O)NC(C)(C)C(=O)N[C@@H](CCC(N)=O)C(=O)N[C@@H](CCCNC(=N)N)C(=O)N[C@@H](CCC(=O)O)C(=O)N[C@@H](CCC(N)=O)C(=O)N[C@@H](C)C(=O)N[C@@H](CCC(=O)O)C(=O)N[C@@H](CCCCN)C(=O)N[C@@H](CC(N)=O)C(=O)N[C@@H](CCCCN)C(=O)N[C@@H](CCC(N)=O)C(=O)N[C@H](C(=O)N[C@@H](CC(C)C)C(=O)N[C@@H](CCC(=O)O)C(=O)N[C@@H](CCC(N)=O)C(=O)N[C@H](C(N)=O)C(C)C)[C@@H](C)CC)[C@@H](C)CC)[C@@H](C)CC)C(C)C)C(C)C
B3: peptide of SEQ ID NO: 157 (peptide)
peptide: Ac-IVLSLD[dV]PIKLK([AEEA-AEEA-γGlu-C18 diacid])QILLEQARQK[Aib]QREQAEKNKQILEQV-NH2
SMILES: CC[C@H](C)[C@H](NC(C)=O)C(=O)N[C@H](C(=O)N[C@@H](CC(C)C)C(=O)N[C@@H](CO)C(=O)N[C@@H](CC(C)C)C(=O)N[C@@H](CC(=O)O)C(=O)N[C@@H](C(=O)N1CCC[C@H]1C(=O)N[C@H](C(=O)N[C@@H](CCCCN)C(=O)N[C@@H](CC(C)C)C(=O)N[C@@H](CCCCNC(=O)COCCOCCNC(=O)COCCOCCNC(=O)CC[C@H](NC(=O)CCCCCCCCCCCCCCCCC(=O)O)C(=O)O)C(=O)N[C@@H](CCC(N)=O)C(=O)N[C@H](C(=O)N[C@@H](CC(C)C)C(=O)N[C@@H](CC(C)C)C(=O)N[C@@H](CCC(=O)O)C(=O)N[C@@H](CCC(N)=O)C(=O)N[C@@H](C)C(=O)N[C@@H](CCCNC(=N)N)C(=O)N[C@@H](CCC(N)=O)C(=O)N[C@@H](CCCCN)C(=O)NC(C)(C)C(=O)N[C@@H](CCC(N)=O)C(=O)N[C@@H](CCCNC(=N)N)C(=O)N[C@@H](CCC(=O)O)C(=O)N[C@@H](CCC(N)=O)C(=O)N[C@@H](C)C(=O)N[C@@H](CCC(=O)O)C(=O)N[C@@H](CCCCN)C(=O)N[C@@H](CC(N)=O)C(=O)N[C@@H](CCCCN)C(=O)N[C@@H](CCC(N)=O)C(=O)N[C@H](C(=O)N[C@@H](CC(C)C)C(=O)N[C@@H](CCC(=O)O)C(=O)N[C@@H](CCC(N)=O)C(=O)N[C@H](C(N)=O)C(C)C)[C@@H](C)CC)[C@@H](C)CC)[C@@H](C)CC)C(C)C)C(C)C
B4: peptide of SEQ ID NO: 162 (peptide)
peptide: Ac-IVLSLD[dV]PIELK([AEEA-AEEA-γGlu-C18 diacid])QILLEQERQK[Aib]QREQAEKNKQILEQV-NH2
SMILES: CC[C@H](C)[C@H](NC(C)=O)C(=O)N[C@H](C(=O)N[C@@H](CC(C)C)C(=O)N[C@@H](CO)C(=O)N[C@@H](CC(C)C)C(=O)N[C@@H](CC(=O)O)C(=O)N[C@@H](C(=O)N1CCC[C@H]1C(=O)N[C@H](C(=O)N[C@@H](CCC(=O)O)C(=O)N[C@@H](CC(C)C)C(=O)N[C@@H](CCCCNC(=O)COCCOCCNC(=O)COCCOCCNC(=O)CC[C@H](NC(=O)CCCCCCCCCCCCCCCCC(=O)O)C(=O)O)C(=O)N[C@@H](CCC(N)=O)C(=O)N[C@H](C(=O)N[C@@H](CC(C)C)C(=O)N[C@@H](CC(C)C)C(=O)N[C@@H](CCC(=O)O)C(=O)N[C@@H](CCC(N)=O)C(=O)N[C@@H](CCC(=O)O)C(=O)N[C@@H](CCCNC(=N)N)C(=O)N[C@@H](CCC(N)=O)C(=O)N[C@@H](CCCCN)C(=O)NC(C)(C)C(=O)N[C@@H](CCC(N)=O)C(=O)N[C@@H](CCCNC(=N)N)C(=O)N[C@@H](CCC(=O)O)C(=O)N[C@@H](CCC(N)=O)C(=O)N[C@@H](C)C(=O)N[C@@H](CCC(=O)O)C(=O)N[C@@H](CCCCN)C(=O)N[C@@H](CC(N)=O)C(=O)N[C@@H](CCCCN)C(=O)N[C@@H](CCC(N)=O)C(=O)N[C@H](C(=O)N[C@@H](CC(C)C)C(=O)N[C@@H](CCC(=O)O)C(=O)N[C@@H](CCC(N)=O)C(=O)N[C@H](C(N)=O)C(C)C)[C@@H](C)CC)[C@@H](C)CC)[C@@H](C)CC)C(C)C)C(C)C

Target: rat CRF2R α receptor (rat, UniProt P47866 20-411)
Sequence (P47866 20-411): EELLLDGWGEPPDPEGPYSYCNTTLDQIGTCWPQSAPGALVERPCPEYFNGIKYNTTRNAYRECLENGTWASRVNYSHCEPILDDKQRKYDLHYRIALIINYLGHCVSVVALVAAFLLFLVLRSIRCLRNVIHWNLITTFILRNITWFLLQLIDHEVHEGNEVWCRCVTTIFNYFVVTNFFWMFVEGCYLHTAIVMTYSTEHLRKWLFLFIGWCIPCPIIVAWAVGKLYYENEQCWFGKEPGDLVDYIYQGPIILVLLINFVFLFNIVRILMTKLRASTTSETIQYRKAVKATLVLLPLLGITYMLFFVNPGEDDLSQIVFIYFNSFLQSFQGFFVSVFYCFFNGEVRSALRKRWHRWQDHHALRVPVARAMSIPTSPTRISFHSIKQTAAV
Experiment: cell-based or functional assay

| Binder | EC50 [nM], 0% HSA (cAMP, A7R5 cells) [nM] |
| --- | --- |
| B1 | 15.6 |
| Ac-IVLSLD[dV]PIHLK([AEEA-AEEA-γGlu-C18 diacid])QILLEQERQK[Aib]QREQAEKNKQILEQV-NH2 [peptide of SEQ ID NO: 163] | 1.5 |
| B2 | 5.29 |
| B3 | 1.14 |
| B4 | 48.6 |
